Laboratory results as given in the RNAGym collection of RNA variant scans (doi:10.1073/pnas.2313332121).
Variants at the floor of the assay were thinned out.

B1: TPR 5TU (parent)
chain: GGAUCUUCUCGAUCUAACAAAAAAGACAAAUCUGCCACAAAGCUUGAGAGCAUCUUCGGAUGCAGAGGCGGCAGCCUUCGGUGGCGCGAUAGCGCCAACGUUCUCAACUAUGACACGCAAAACGCGUGCUCCGUUGAAUGGAGUUUAUCAUG

Variants of: B1
Experiment: polymerase ribozyme fitness, log enrichment relative to wild type (log ratio); higher = more active; in vitro selection for triplet polymerase activity
Method in brief: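 The heterodimeric triplet polymerase ribozyme's subunits were each mutagenized into PCR-built libraries and transcribed. Every library was selected once, in triplicate, by annealing with a biotinylated primer, the partner subunit and triplets, incubating frozen at −7 °C, gel-excising extended constructs, capturing on streptavidin beads and running RT-PCR. Input and output libraries were Illumina-sequenced, with genotypes kept only at ≥10 input reads and ≥1 read per output. Fitness, from inverse-variance-weighted replicate averages, is the base-2 logarithm of genotype enrichment over wild-type enrichment.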

Going from GGAUCUUCUCGAUCUAACAAAAAAGACAAAUCUGCCACAAAGCUUGAGAGCAUCUUCGGAUGCAGAGCCGGCACCCUUCGGUGGCGUGAUAGCGCCAACGUUCUCAACUAUGACACGAAAAACGCGUGCUCCGUAGAAUGGAGUUUAUGAUG [G68C G74C C87U C118A U135A C149G] to GGAUCUUCUCGAUCUAACAAAAAAGACAAAUCUGCCACAAAGCUUGAGAGCAUCUUCGGAUGCAGAGACGGCAGCCUUUGGUGGCGCGAUGGCGCCAACGUUCUCAACUAUGACACGCAAAACGCGUGCUCCGUUGAAUGGAGUUUAUCAUG [G68A C79U A91G], the “polymerase ribozyme fitness (log ratio)” value rises from ≤ -4.2 to -4.14.

Going from GGAUCUUCUCGAUCUAACAAAAAAGACAAAUCUGCCACAAAGCUUGAGAGCAUCUUCGGAUGCAGAGACGGCAGCCUUCGGUGGCGCGAUAGCGCCAACGUUCUUAACUAUGACACGCAAAACGCGUGCUCCGUUGAAUGGAGUUUAUCAUG [G68A C105U] to GGAUCUUCUCGAUCUAACAAAAAAGACAAAUCUGCCACAAAGCUUGAGAGCAUCUUCGGAUGCAGAGGAGGCAGCCCUCGGUGGCGCGAUAGCGCCAUCGUUCUCAACUAUGACACGCAAAUCGCGUGCUCCGUUGAAUGGAGUUCAUCAAG [C69A U77C A98U A122U U146C U151A], the “polymerase ribozyme fitness (log ratio)” value falls from -3.51 to ≤ -4.2.

First: GGAUCUUCUCGAUCUAACAAAAAAGACAAAUCUGCCACAAAGCUUGAGAGCAUCUUCGGAUGCAGAGACGGCAGCCUUCGGUGGUGCGAUAGCGCCAACGUUCUCAACUGUGACACGCAAAACGCGUGCUCCGUUGAAUGGAGUUUAUCAUG [G68A C85U A110G]
Second: GGAUCUUCUCGAUCUAACAAAAAAGACAAAUCUGCCACAAAGCUUGAGAGCAUCUUCGGAUGCAGAGGAGGCAGCCUUCGGUGGCGCGAUAGCGAGAACGUUCUCAACUAUGACACGCAAAACGCGUGCUCCGUUGAAUGGAGUUUAUCAUU [C69A C95A C96G G152U]
The “polymerase ribozyme fitness (log ratio)” value of the first is lower: ≤ -4.2 for the first, -3.59 for the second.

Compared with GGAUCUUCUCGAUCUAACAAAAAAGACAAAUCUGCCACAAAGCUUGAGAGCAUCUUCGGAUGCAGAGUCGUCAGCCUUCGGUGGCUCGAUAGCGCCUACGUUCUCAACUAUGACACGCAAAACGCGUGCUCCGUUGAAUGGAGUUUAUCAUG [G68U G71U G86U A97U], GGAUCUUCUCGAUCUAACAAAAAAGACAAAUCUGCCACAAAGCUUGAGAGCAUCUUCGGAUGCAGAUGCGGCAGCCUUCGGUGGCGCGAUAGCGCCAACGUUCUCAACUAUGACACGCAAAACGCGUGCUCCGUUGAAUGGAGUUAAUCAUG [G67U U146A] is higher in “polymerase ribozyme fitness (log ratio)” value: ≤ -4.2 for the first, -2.89 for the second.

GGAUCUUCUCGAUCUAACAAAAAAGACAAAUCUGCCACAAAGCUUGAGAGCAUCUUCGGAUGCAGAGUCGGCAGCCUUGGGUGACGCGAUAGCGCCAACGUUCUUAACUAUGACACGCAAAACGCGUGCUCCGUUGAAUGGAGUUUUUCAUG [G68U C79G G84A C105U A147U] and GGAUCUUCUCGAUCUAACAAAAAAGACAAAUCUGCCACAAAGCUUGAGAGCAUCUUCGGAUGCAGAGACGGCAGCCUUCGGUGGCGCGAUAGCGCCAACGUUCUCAACUAUGACAAGCAAAAUGCGUGCUCCGUUGAAUGGAGUUUAUCAUG [G68A C116A C123U] cannot be ordered by “polymerase ribozyme fitness (log ratio)” value: ≤ -4.2 for the first, ≤ -4.2 for the second.

First: GGAUCUUCUCGAUCUAACAAAAAAGACAAAUCUGCCACAAAGCUUGAGAGCAUCUUCGGAUGCAGAGACGGCAGCCUUCGGUGGCGCGAUAGCGCCAUCGUUCUCAACUAUGACACGCAAAACGCGUGCUCCGUUGAAUGGAGUUUAUCAUG [G68A A98U]
Second: GGAUCUUCUCGAUCUAACAAAAAAGACAAAUCUGCCACAAAGCUUGAGAGCAUCUUCGGAUGCAGAGGAGGCGGCCUUCGGUGGCGUGAUAGCGCCAACGUUCUCAACUAUGACACGCAAAACGCGUGCUCCGUUGAAUGGAGUUUAUCAUG [C69A A73G C87U]
The “polymerase ribozyme fitness (log ratio)” value of the first is higher: -3.61 for the first, ≤ -4.2 for the second.

Going from GGAUCUUCUCGAUCUAACAAAAAAGACAAAUCUGCCACAAAGCUUGAGAGCAUCUUCGGAUGCAGAGGAGGCAGCCUUCGGUGGCGCGUUAGCGCCAACGUUCUCAACUAUGACACGCAAAACGCGUGCUCCGUUGAAUGGAGUUUAUCAUG [C69A A89U] to GGAUCUUCUCGAUCUAACAAAAAAGACAAAUCUGCCACAAAGCUUGAGAGCAUCUUCGGAUGCAGAGUCGGCAGCUUUCGGUGGCGCGAUAGCGCCAACGUUCUCAACUAUGACACGCAAAACGCGUGCUCCGUUGAAUGGAGUUUAUCAUG [G68U C76U], the “polymerase ribozyme fitness (log ratio)” value falls from -1.41 to ≤ -4.2.

Going from GGAUCUUCUCGAUCUAACAAAAAAGACAAAUCUGCCACAAAGCUUGAGAGCAUCUUCGGAUGCAGAGACGGCAGCCUUCGGUGGCGCGAUAGCGUCAACGUUCUCAACUAUGACACGCAAAACGCGUGCUCCGUUGAAUGGAGUUUAUCAUG [G68A C95U] to GGAUCUUCUCGAUCUAACAAAAAAGACAAAUCUGCCACAAAGCUUGAGAGCAUCUUCGGAUGCAGAGACGGCAGCCUUCGGUGGCGCGAUAGCGCAAAUGUUCUCAACUGUGACACGCAAAACGCGUGCUCCGUUGAAUGGAGUCUAUCAUG [G68A C96A C99U A110G U145C], the “polymerase ribozyme fitness (log ratio)” value falls from -3.77 to ≤ -4.2.

GGAUCUUCUCGAUCUAACAAAAAAGACAAAUCUGCCACAAAGCUUGAGAGCAUCUUCGGAUGCAGAGUCGGCAGCCUUCGGUGGUGCGAUAGCGCCAACGUUCUCAACUAUGACACGCAAAACGCGUGCUCCGUUGAAUGGAGUUUAUCAUG [G68U C85U] and GGAUCUUCUCGAUCUAACAAAAAAGACAAAUCUGCCACAAAGCUUGAGAGCAUCUUCGGAUGCAGAGACGGCAGCCUUCGGUUGCGCAAUAGCGCCAACGUUCUCAUCUAUGAUACGCAAAACGCGUGCUCCGUUGAAUGGAGUUUAUCAUG [G68A G83U G88A A107U C114U] cannot be ordered by “polymerase ribozyme fitness (log ratio)” value: ≤ -4.2 for the first, ≤ -4.2 for the second.

In the case of GGAUCUUCUCGAUCUAACAAAAAAGACAAAUCUGCCACAAAGCUUGAGAGCAUCUUCGGAUGCAGAGACGGCAGCCUUCGGUGGCGCGAUAGGGCCAACGUUCUCAACUAUGACACGCAAAACGCGUGCUCCGUUGAAUGGAGUUUAUCAUG [G68A C93G], the “polymerase ribozyme fitness (log ratio)” value is reported as ≤ -4.2.
